Measurements reported in patent publication US20020127221A1.
No end group written: not given here.

Assays:
[1] = biological target: CRF-R1; assay: displacement of 125I-Sauvagine, membranes of CHO cells expressing CRFR1, filtration assay
[2] = biological target: CRF-R2β; assay: displacement of 125I-Sauvagine, membranes of CHO cells expressing CRFR2β, filtration assay
[3] = biological target: CRF-R1; assay: radioreceptor competition vs 125I-[Tyr0,Glu1,Nle17]-sauvagine, CHO cell membranes
[4] = biological target: CRF-R2β; assay: as above
[5] = biological target: CRF-R1; assay: cell-based or functional assay
[6] = biological target: CRF-R2β; assay: cell-based or functional assay
[7] = biological target: CRF-R1; assay: assay not named in the summary; presumably 125I-sauvagine competition
[8] = biological target: CRF-R1; assay: radioreceptor competition vs labeled sauvagine, CHO cell membranes; reference urocortin

Sequence of CRF-R1 (P34998 24-415): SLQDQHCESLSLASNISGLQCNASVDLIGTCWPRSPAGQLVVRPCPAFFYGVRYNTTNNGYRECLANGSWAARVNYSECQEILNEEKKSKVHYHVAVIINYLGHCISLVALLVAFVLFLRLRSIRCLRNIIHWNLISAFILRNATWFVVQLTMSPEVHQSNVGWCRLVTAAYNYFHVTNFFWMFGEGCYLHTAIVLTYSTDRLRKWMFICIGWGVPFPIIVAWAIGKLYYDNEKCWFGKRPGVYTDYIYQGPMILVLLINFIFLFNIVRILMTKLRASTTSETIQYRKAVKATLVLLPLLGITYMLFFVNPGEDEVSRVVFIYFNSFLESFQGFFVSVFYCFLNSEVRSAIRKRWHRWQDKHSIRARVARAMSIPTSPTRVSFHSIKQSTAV

Molecule	Ki [1] [nM]	Ki [2] [nM]	Ki [3] [nM]	Ki [4] [nM]	Avg. EC50 (nM) (cAMP) [5]	Avg. EC50 (nM) (cAMP) [6]	Ki [7] [nM]	fold less effective than urocortin at competing for binding of labeled sauvagine [8] [fold]
urocortin (Ucn), species not stated (from UniProt P55090 81-120) (peptide)	0.13	0.15						
QGPPISIDLSLELLRKMIEIEKQEKEKQQAANNRLLLDTI (peptide, UniProt P01144 1-40, looked up, ends and bridges not checked) [Sauvagine (frog)]			0.94	1.7				
IVLSLDVPIGLLQILLEQARARAAREQATTNARILARVGHC-NH2 [human urocortin-related peptide]	78	0.23		0.5	> 100	0.42	70	
VILSLDVPIGLLRILLEQARYKAARNQAATNAQILAHV-NH2 [Urocortin II (mouse)]				0.66	> 100	0.14		> 1000
DDPPLSIDLTFHLLRTLLELARTQSQRERAEQNRIIFDSV (peptide, UniProt P55090 81-120, looked up) [Urocortin (rat)]				0.62	0.29	0.17		
